# Data taken from PMC3919270.
# Tests used:
# Rab5 = Rab5 (UniProt P51148)
# Rab1/Ypt1 = Rab1/Ypt1 (UniProt P01123)
# UniProt P01123, sequence (P01123 whole entry): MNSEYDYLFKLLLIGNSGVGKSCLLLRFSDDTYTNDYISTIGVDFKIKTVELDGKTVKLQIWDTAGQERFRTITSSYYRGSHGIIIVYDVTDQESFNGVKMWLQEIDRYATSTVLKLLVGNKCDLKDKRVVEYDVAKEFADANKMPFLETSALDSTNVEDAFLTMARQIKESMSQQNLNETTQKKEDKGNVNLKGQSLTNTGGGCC
# UniProt P51148, sequence (P51148 whole entry): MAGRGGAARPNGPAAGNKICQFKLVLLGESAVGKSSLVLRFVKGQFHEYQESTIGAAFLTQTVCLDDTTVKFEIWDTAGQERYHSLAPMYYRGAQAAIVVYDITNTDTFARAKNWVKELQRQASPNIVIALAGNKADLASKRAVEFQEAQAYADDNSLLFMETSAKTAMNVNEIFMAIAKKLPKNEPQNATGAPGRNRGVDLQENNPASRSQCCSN
substance,measurement,setting,value
Rabex5 (enzyme),catalytic efficiency (kcat/Km) of Rabex-mediated nucleotide exchange (release of Mant-GDP from Rab5),Rab5,25000 M⁻¹ s⁻¹
TRAPP Bet3 E192A/D193A mutant (from UniProt P36149 1-193) (complex),"GEF activity towards Rab1 (release of Mant-GDP), reduction against wild type TRAPP",Rab1/Ypt1,4 fold
TRAPPI-complex (from UniProt P36149 1-193),catalytic efficiency (kcat/Km) of TRAPP-stimulated GDP-release from Rab1/Ypt1 (release of Mant-GDP),Rab1/Ypt1,130000 M⁻¹ s⁻¹
